Target: human serum albumin (HSA) (human, UniProt P02768 25-609)
Assay: native polyacrylamide gel (10%) shift after 60 min incubation at room temperature at the stated HSA:AAD molar ratios

Chain of human serum albumin (HSA) (P02768 25-609 limits assumed): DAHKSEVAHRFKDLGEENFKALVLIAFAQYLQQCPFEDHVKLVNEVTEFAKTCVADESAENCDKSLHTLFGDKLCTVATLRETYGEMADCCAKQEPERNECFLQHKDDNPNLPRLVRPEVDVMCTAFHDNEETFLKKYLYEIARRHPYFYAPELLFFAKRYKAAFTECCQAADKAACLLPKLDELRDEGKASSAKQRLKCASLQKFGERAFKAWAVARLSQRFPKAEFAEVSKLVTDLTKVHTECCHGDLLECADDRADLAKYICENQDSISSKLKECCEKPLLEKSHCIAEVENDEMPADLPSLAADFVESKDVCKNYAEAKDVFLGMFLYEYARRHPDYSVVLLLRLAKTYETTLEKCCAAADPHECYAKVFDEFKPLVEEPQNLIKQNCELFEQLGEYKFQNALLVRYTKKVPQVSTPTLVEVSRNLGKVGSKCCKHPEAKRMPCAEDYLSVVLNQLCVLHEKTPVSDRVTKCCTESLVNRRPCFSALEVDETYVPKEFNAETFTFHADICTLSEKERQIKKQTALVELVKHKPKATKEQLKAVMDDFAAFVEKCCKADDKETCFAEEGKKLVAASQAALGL

B1: albumin-binding arginine deiminase (AAD) fusion protein His-ABD-PolyN-ADI (enzyme)
chain: MHHHHHHDEAVDANSLAEAKVLANRELDKYGVSDYYKNLINNAKTVEGVKALIDEILAALPSGSNNNNNNGSGGSVFDSKFKGIHVYSEIGELESVLVHEPGREIDYITPARLDELLFSAILESHDARKEHKQFVAELKANDINVVELIDLVAETYDLASQEAKDKLIEEFLEDSEPVLSEEHKVVVRNFLKAKKTSRELVEIMMAGITKYDLGIEADHELIVDPMPNLYFTRDPFASVGNGVTIHYMRYKVRQRETLFSRFVFSNHPKLINTPWYYDPSLKLSIEGGDVFIYNNDTLVVGVSERTDLQTVTLLAKNIVANKECEFKRIVAINVPKWTNLMHLDTWLTMLDKDKFLYSPIANDVFKFWDYDLVNGGAEPQPVENGLPLEGLLQSIINKKPVLIPIAGEGASQMEIERETHFDGTNYLAIRPGVVIGYSRNEKTNAALEAAGIKVLPFHGNQLSLGMGNARCMSMPLSRKDVKW
B1: binds.

— patent USRE48805 (VISION GLOBAL, dated 2021)
